The values that follow come from article PMC4127636 (The Biochemical journal, 2012).

For data set [1], the target named is T1, BioH (Escherichia coli, UniProt P13001).
T1 sequence (P13001 1-256): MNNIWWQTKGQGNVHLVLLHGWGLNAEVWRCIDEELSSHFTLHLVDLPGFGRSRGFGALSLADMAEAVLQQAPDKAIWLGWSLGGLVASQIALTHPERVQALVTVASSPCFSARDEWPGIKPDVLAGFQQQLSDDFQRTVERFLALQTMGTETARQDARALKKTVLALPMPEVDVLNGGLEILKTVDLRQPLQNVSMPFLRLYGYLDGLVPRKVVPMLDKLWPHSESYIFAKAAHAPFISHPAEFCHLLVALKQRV
Put plainly: esterase activity, temperature profile. Format: biochemical. Conditions: 50 mM potassium Hepes pH 8.0; temperature varied.

Data set [2] has as its target T2, Atu1476 (Agrobacterium fabrum, UniProt A9CJ11).
T2 sequence (A9CJ11 1-277): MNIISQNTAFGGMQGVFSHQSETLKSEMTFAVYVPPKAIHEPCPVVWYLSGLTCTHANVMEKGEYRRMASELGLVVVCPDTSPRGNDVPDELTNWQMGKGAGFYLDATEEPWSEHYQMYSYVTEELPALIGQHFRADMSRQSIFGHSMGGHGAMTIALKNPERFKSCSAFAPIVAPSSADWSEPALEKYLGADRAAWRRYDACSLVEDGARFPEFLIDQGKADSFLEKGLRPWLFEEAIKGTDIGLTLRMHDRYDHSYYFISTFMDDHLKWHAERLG
Nature of the data set: esterase activity, temperature profile. Format: biochemical. The following applies: 50 mM potassium Hepes pH 8.0; temperature varied.

Data set [3] addresses T3, YeiG (Escherichia coli, UniProt P33018).
T3 sequence (P33018 1-278): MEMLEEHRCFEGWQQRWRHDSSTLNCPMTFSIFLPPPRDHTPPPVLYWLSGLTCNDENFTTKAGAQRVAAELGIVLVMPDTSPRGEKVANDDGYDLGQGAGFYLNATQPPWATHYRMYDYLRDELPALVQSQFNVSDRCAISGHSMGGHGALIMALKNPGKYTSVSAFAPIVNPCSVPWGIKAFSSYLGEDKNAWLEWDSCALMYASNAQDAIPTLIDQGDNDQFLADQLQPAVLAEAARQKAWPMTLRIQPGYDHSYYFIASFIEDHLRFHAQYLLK
Put plainly: esterase activity, temperature profile. The format is biochemical. The following applies: 50 mM potassium Hepes pH 8.0; temperature varied.

Substrate in data set [4]: CC(=O)Oc1ccc([N+](=O)[O-])cc1
Nature of the data set: spectrophotometric esterase assay. The format is biochemical, Oleispira antarctica. The following applies: no salt, 50 mM potassium Hepes pH 8.0, 20°C.

Substrate in data set [5]: CC(=O)Oc1cccc2ccccc12
Put plainly: spectrophotometric esterase assay. Format: biochemical, Oleispira antarctica. Conditions: 50 mM potassium Hepes pH 8.0, 20°C.

Substrate in data set [6]: CCC(=O)Oc1ccc([N+](=O)[O-])cc1
Put plainly: spectrophotometric esterase assay. Format: biochemical, Oleispira antarctica. Conditions: 0.4 M NaCl, 50 mM potassium Hepes pH 8.0, 20°C.

Substrate in data set [7]: CCC(=O)Oc1cccc2ccccc12
Put plainly: spectrophotometric esterase assay. Format: biochemical, Oleispira antarctica. Conditions: 0.4 M NaCl, 50 mM potassium Hepes pH 8.0, 20°C.

Substrate in data set [8]: CCCC(=O)Oc1ccc([N+](=O)[O-])cc1
Nature of the data set: spectrophotometric esterase assay. The format is biochemical, Oleispira antarctica. Conditions: 0.4 M NaCl, 50 mM potassium Hepes pH 8.0, 20°C.

Substrate in data set [9]: CCCC(=O)Oc1cccc2ccccc12
Put plainly: spectrophotometric esterase assay. The format is biochemical, Oleispira antarctica. The following applies: 0.4 M NaCl, 50 mM potassium Hepes pH 8.0, 20°C.

As for `CCCC(=O)Oc1ccc([N+](=O)[O-])cc1` [pNP-butyrate], the “esterase activity, temperature profile” value in data set [1] is “using α-naphthyl acetate (A), pNP-butyrate (B and D) and pNP-propionate (C) as substrates”; in [2], “using α-naphthyl acetate (A), pNP-butyrate (B and D) and pNP-propionate (C) as substrates”.

Consider `CCC(=O)Oc1ccc([N+](=O)[O-])cc1` [pNP-propionate], for which, in data set [3], the “esterase activity, temperature profile” value was “using α-naphthyl acetate (A), pNP-butyrate (B and D) and pNP-propionate (C) as substrates”.

B1: OLEI01171 (Oleispira antarctica) (protein)
chain: MSIENLSSNKSFGGWHKQYSHVSNTLNCAMRFAIYLPPQASTGAKVPVLYWLSGLTCSDENFMQKAGAQRLAAELGIAIVAPDTSPRGEGVADDEGYDLGQGAGFYVNATQAPWNRHYQMYDYVVNELPELIESMFPVSDKRAIAGHSMGGHGALTIALRNPERYQSVSAFSPINNPVNCPWGQKAFTAYLGKDTDTWREYDASLLMRAAKQYVPALVDQGEADNFLAEQLKPEVLEAAASSNNYPLELRSHEGYDHSYYFIASFIEDHLRFHSNYLNA
In the case of B1, the Km – broadly, the substrate concentration at which the rate is half of its maximum – turned out to be 700 ± 100 µM in data set [4]; 400 ± 30 µM in data set [5] (no salt); 700 ± 200 µM in data set [6]; 200 ± 30 µM in [7]; 900 ± 300 µM in data set [8]; 200 ± 40 µM in data set [9]. Besides, the kcat (as a rule, the maximal rate divided by the concentration of active sites) turned out to be 0.2 ± 0.03 s⁻¹ in data set [4]; 0.8 ± 0.02 s⁻¹ in [5] (no salt); 0.3 ± 0.03 s⁻¹ in data set [6]; 1.5 ± 0.1 s⁻¹ in data set [7]; 0.2 ± 0.03 s⁻¹ in data set [8]; 0.06 ± 0.01 s⁻¹ in data set [9]. The kcat/Km – broadly, the second-order rate constant that governs catalysis at low substrate concentration – was determined as 300 M⁻¹ s⁻¹ in data set [4]; 2000 M⁻¹ s⁻¹ in [5] (no salt); 400 M⁻¹ s⁻¹ in data set [6]; 8000 M⁻¹ s⁻¹ in data set [7]; 200 M⁻¹ s⁻¹ in data set [8]; 300 M⁻¹ s⁻¹ in data set [9].

B2: OLEI01171 (Oleispira antarctica; A224K) (protein)
chain: MSIENLSSNKSFGGWHKQYSHVSNTLNCAMRFAIYLPPQASTGAKVPVLYWLSGLTCSDENFMQKAGAQRLAAELGIAIVAPDTSPRGEGVADDEGYDLGQGAGFYVNATQAPWNRHYQMYDYVVNELPELIESMFPVSDKRAIAGHSMGGHGALTIALRNPERYQSVSAFSPINNPVNCPWGQKAFTAYLGKDTDTWREYDASLLMRAAKQYVPALVDQGEKDNFLAEQLKPEVLEAAASSNNYPLELRSHEGYDHSYYFIASFIEDHLRFHSNYLNA
For B2, in [5] (0.4 M NaCl), the Km is 300 ± 40 µM, the kcat is 1.1 ± 0.1 s⁻¹ and the kcat/Km was found to be 4000 M⁻¹ s⁻¹.

B3: OLEI01171 (Oleispira antarctica; N62A) (protein)
chain: MSIENLSSNKSFGGWHKQYSHVSNTLNCAMRFAIYLPPQASTGAKVPVLYWLSGLTCSDEAFMQKAGAQRLAAELGIAIVAPDTSPRGEGVADDEGYDLGQGAGFYVNATQAPWNRHYQMYDYVVNELPELIESMFPVSDKRAIAGHSMGGHGALTIALRNPERYQSVSAFSPINNPVNCPWGQKAFTAYLGKDTDTWREYDASLLMRAAKQYVPALVDQGEADNFLAEQLKPEVLEAAASSNNYPLELRSHEGYDHSYYFIASFIEDHLRFHSNYLNA
Consider B3, for which, in data set [5] (0.4 M NaCl), the Km was 500 ± 100 µM, the kcat was found to be 1.8 ± 0.2 s⁻¹ and the catalytic efficiency (kcat/Km) came to 4000 M⁻¹ s⁻¹.

B4: OLEI01171 (Oleispira antarctica; S173A) (protein)
chain: MSIENLSSNKSFGGWHKQYSHVSNTLNCAMRFAIYLPPQASTGAKVPVLYWLSGLTCSDENFMQKAGAQRLAAELGIAIVAPDTSPRGEGVADDEGYDLGQGAGFYVNATQAPWNRHYQMYDYVVNELPELIESMFPVSDKRAIAGHSMGGHGALTIALRNPERYQSVSAFAPINNPVNCPWGQKAFTAYLGKDTDTWREYDASLLMRAAKQYVPALVDQGEADNFLAEQLKPEVLEAAASSNNYPLELRSHEGYDHSYYFIASFIEDHLRFHSNYLNA
As for B4, in data set [5] (0.4 M NaCl), the Km came out at 600 ± 100 µM, the kcat was 5.3 ± 0.3 s⁻¹ and the kcat/Km stood at 9000 M⁻¹ s⁻¹.

B5: OLEI01171 (Oleispira antarctica; N226A) (protein)
chain: MSIENLSSNKSFGGWHKQYSHVSNTLNCAMRFAIYLPPQASTGAKVPVLYWLSGLTCSDENFMQKAGAQRLAAELGIAIVAPDTSPRGEGVADDEGYDLGQGAGFYVNATQAPWNRHYQMYDYVVNELPELIESMFPVSDKRAIAGHSMGGHGALTIALRNPERYQSVSAFSPINNPVNCPWGQKAFTAYLGKDTDTWREYDASLLMRAAKQYVPALVDQGEADAFLAEQLKPEVLEAAASSNNYPLELRSHEGYDHSYYFIASFIEDHLRFHSNYLNA
For B5, in [5] (0.4 M NaCl), the Km was found to be 500 ± 100 µM, the kcat was determined as 1.7 ± 0.1 s⁻¹ and the kcat/Km turned out to be 3000 M⁻¹ s⁻¹.

B6: OLEI01171 (Oleispira antarctica; S59A) (protein)
chain: MSIENLSSNKSFGGWHKQYSHVSNTLNCAMRFAIYLPPQASTGAKVPVLYWLSGLTCADENFMQKAGAQRLAAELGIAIVAPDTSPRGEGVADDEGYDLGQGAGFYVNATQAPWNRHYQMYDYVVNELPELIESMFPVSDKRAIAGHSMGGHGALTIALRNPERYQSVSAFSPINNPVNCPWGQKAFTAYLGKDTDTWREYDASLLMRAAKQYVPALVDQGEADNFLAEQLKPEVLEAAASSNNYPLELRSHEGYDHSYYFIASFIEDHLRFHSNYLNA
As to B6, in data set [5] (0.4 M NaCl), the Km stood at 400 ± 10 µM, the kcat stood at 0.8 ± 0.1 s⁻¹ and the kcat/Km was found to be 2000 M⁻¹ s⁻¹.

B7: OLEI01171 (Oleispira antarctica; Y98A) (protein)
chain: MSIENLSSNKSFGGWHKQYSHVSNTLNCAMRFAIYLPPQASTGAKVPVLYWLSGLTCSDENFMQKAGAQRLAAELGIAIVAPDTSPRGEGVADDEGADLGQGAGFYVNATQAPWNRHYQMYDYVVNELPELIESMFPVSDKRAIAGHSMGGHGALTIALRNPERYQSVSAFSPINNPVNCPWGQKAFTAYLGKDTDTWREYDASLLMRAAKQYVPALVDQGEADNFLAEQLKPEVLEAAASSNNYPLELRSHEGYDHSYYFIASFIEDHLRFHSNYLNA
Turning to B7, in [5] (0.4 M NaCl), the Km was 1700 ± 300 µM, the kcat is 2.9 ± 0.3 s⁻¹ and the kcat/Km was found to be 2000 M⁻¹ s⁻¹.

B8: OLEI01171 (Oleispira antarctica; N226K) (protein)
chain: MSIENLSSNKSFGGWHKQYSHVSNTLNCAMRFAIYLPPQASTGAKVPVLYWLSGLTCSDENFMQKAGAQRLAAELGIAIVAPDTSPRGEGVADDEGYDLGQGAGFYVNATQAPWNRHYQMYDYVVNELPELIESMFPVSDKRAIAGHSMGGHGALTIALRNPERYQSVSAFSPINNPVNCPWGQKAFTAYLGKDTDTWREYDASLLMRAAKQYVPALVDQGEADKFLAEQLKPEVLEAAASSNNYPLELRSHEGYDHSYYFIASFIEDHLRFHSNYLNA
In the case of B8, in data set [5] (0.4 M NaCl), the Km came to 400 ± 100 µM, the kcat stood at 3 ± 0.2 s⁻¹ and the kcat/Km is 8000 M⁻¹ s⁻¹.

B9: OLEI01171 (Oleispira antarctica; K66A) (protein)
chain: MSIENLSSNKSFGGWHKQYSHVSNTLNCAMRFAIYLPPQASTGAKVPVLYWLSGLTCSDENFMQAAGAQRLAAELGIAIVAPDTSPRGEGVADDEGYDLGQGAGFYVNATQAPWNRHYQMYDYVVNELPELIESMFPVSDKRAIAGHSMGGHGALTIALRNPERYQSVSAFSPINNPVNCPWGQKAFTAYLGKDTDTWREYDASLLMRAAKQYVPALVDQGEADNFLAEQLKPEVLEAAASSNNYPLELRSHEGYDHSYYFIASFIEDHLRFHSNYLNA
Take B9: in [5] (0.4 M NaCl), the Km was found to be 400 ± 10 µM, the kcat stood at 1.2 ± 0.1 s⁻¹ and the kcat/Km amounted to 3000 M⁻¹ s⁻¹.

B10: OLEI01171 (Oleispira antarctica; C58A) (protein)
chain: MSIENLSSNKSFGGWHKQYSHVSNTLNCAMRFAIYLPPQASTGAKVPVLYWLSGLTASDENFMQKAGAQRLAAELGIAIVAPDTSPRGEGVADDEGYDLGQGAGFYVNATQAPWNRHYQMYDYVVNELPELIESMFPVSDKRAIAGHSMGGHGALTIALRNPERYQSVSAFSPINNPVNCPWGQKAFTAYLGKDTDTWREYDASLLMRAAKQYVPALVDQGEADNFLAEQLKPEVLEAAASSNNYPLELRSHEGYDHSYYFIASFIEDHLRFHSNYLNA
With B10, in [5] (0.4 M NaCl), the Km stood at 200 ± 10 µM, the kcat stood at 0.9 ± 0.02 s⁻¹ and the kcat/Km came to 5000 M⁻¹ s⁻¹.
